From patent US20170210813A1 (Regeneron, published 2017)
Residue numbers refer to the chain shown, from its start. Names and notes keep the numbering of the source.

T1: Macaca fascicularis PDGFRb.mmh (Macaca fascicularis)
T1 construct: Soluble monomeric construct; also called mfPDGFRb.mmh
T1 chain: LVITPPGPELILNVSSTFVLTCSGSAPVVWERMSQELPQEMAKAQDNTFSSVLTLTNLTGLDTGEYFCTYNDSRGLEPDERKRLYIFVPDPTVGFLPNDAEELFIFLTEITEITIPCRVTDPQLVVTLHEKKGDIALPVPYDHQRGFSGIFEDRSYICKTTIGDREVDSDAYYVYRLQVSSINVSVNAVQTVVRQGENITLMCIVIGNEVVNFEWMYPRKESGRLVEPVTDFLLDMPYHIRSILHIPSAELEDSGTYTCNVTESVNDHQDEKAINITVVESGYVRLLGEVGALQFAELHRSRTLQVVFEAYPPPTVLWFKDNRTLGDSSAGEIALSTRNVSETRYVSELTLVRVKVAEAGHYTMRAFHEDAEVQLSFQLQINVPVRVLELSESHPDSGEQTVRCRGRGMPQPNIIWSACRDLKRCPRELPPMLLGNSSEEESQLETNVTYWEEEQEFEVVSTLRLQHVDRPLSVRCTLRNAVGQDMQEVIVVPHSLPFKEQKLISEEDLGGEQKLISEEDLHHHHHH

B1: H4H3104S (antibody, human IgG4, V domains shown)
VH: QVQLVESGGGLVQPGGSLRLSCAAAGFTFSHYWMSWVRQAPGKGLEWVATIKKDGSERYYVDSVKGRFTISRDNARNSMYLEMNSLRTEDTAIYYCARDIVTPNTDYYFGMDVWGQGTTVTVSS
VL: DIQLTQSPSTLSASVGDRVTITCRASQSFNNWLSWYQQKPGKAPKLLIYMASTLESGVPSRFSGSGSGTDFTLTINSLQPDDFATYYCQQSNSYSRTFGHGTKVEIK
notes: human IgG4 Fc (H4H prefix)
B2: H4H3106S (antibody, human IgG4, V domains shown)
VH: QVQLVESGGGLVQPGGSLRLSCAASGFTFSSYWMSWVRQVPGKGLEWVANMNQDGTEKYYVDSVKGRLTISRENVKNSLYLQMNGLRAEDTAVYYCARDLVPPRQGDYYYYFGMDVWGHGTMVTVSS
VL: AIQMTQSPSTLSASVGDIVTITCRASQSISDWLAWYQQKPGKAPKLLIFKASSLESGVPSRFSGSGSGTDFTLTISSLQPDDFATYYCQQYNSYSRTFGQGTKVDIK
notes: human IgG4 Fc (H4H prefix)
B3: H4H3102S (antibody, human IgG4, V domains shown)
VH: EVQLVESGGDLVHPGRSLRLSCVASGFTFDDYTMHWVRQAPGKGLEWVSAISWNGDNINYAGSVKGRFTISRDNAKNSLYLEMNSLRVEDTAFYYCAKGRGFSFGFNYLGQGTMVTVSS
VL: AIRMTQSPSSLSASVGDRVTITCRASQDISNYLAWFQQQPGKAPKSLIYATSSLNSGVPSKFSGSGSGTDFTLTISSLQPEDFATYYCQQYKSYPLTFGGGTKVEIK
notes: human IgG4 Fc (H4H prefix)
B4: H4H3097S (antibody, human IgG4, V domains shown)
VH: QVQLVESGAEMKKPGASVKVSCKASGYTFTDYGINWVRQAPGQGLEWMGWVSGYNGNTVFAQKIQGRVTMTTDTSTSTAYMELRSLRSDDTAVYFCARISVRGHSYYHGMGVWGQGTTVTVSS
VL: AIRMTQSPSSLSASVGDRVTITCRASQDINSYLAWFQQKPGKAPKSLIYTASSLQSGVPSKFSGSGSGTDFTLTISSLQPEDFATYYCQQYNTYPYTFGQGTKVESK
notes: human IgG4 Fc (H4H prefix)
B5: H4H3098S (antibody, human IgG4, V domains shown)
VH: EVQLVESGGGVVQPGRSLRLSCAASGFTFSNYGMHWVRQAPGKGLEWVTVIWYDGSYKYYADSVKGRFTISRDNSKNRLYLQMNSLRAEDTAVYYCARGELGDAFDIWGQGTMVTVSS
VL: DIQMTQSPSTLSASVGDRLTITCRASQSISTWLAWYQQKPGKAPTLLIYKASSLESGVPSRFSGSGSGTDFTLTISSLQPDDFATYYCQQYKTSWTFGQGTKLEIKR
notes: human IgG4 Fc (H4H prefix)
B6: H4H3096S (antibody, human IgG4, V domains shown)
VH: EVQLVQSGGSLVQPGGSLRLSCTASGFTFSSYWMSWVRQAPGKGLEWVANIQQDESEKYYVDSVKGRFSISRDNAKKSLYLQMNSLRAEDTAVYFCARDLVPPRQGDYYHYFGMDVWGQGTLVTVSS
VL: AIRMTQSPSTLSASVGDRVTITCRASQSISDWLAWYQQKPGKAPNLLIYKASSLESGVPSRFSGSGSGTEFTLTISGLQPDDFATYYCQQYNSYSRTFGQGTKLEIKR
notes: human IgG4 Fc (H4H prefix)
B7: H4H3105S (antibody, human IgG4, V domains shown)
VH: B6 VH with E1Q, Q6E, S21A, S56N, A88V, L122T
VL: B2 VL with A1D, M4L, I18R, K45N, F49Y, S53T, D70E, D105E
notes: human IgG4 Fc (H4H prefix)

Tests used:
[1] = target: T2, human PDGFRb.hFc (human); assay: SPR, mAb captured, 37 C
T2 construct: Soluble dimeric construct with human Fc; also called hPDGFRb.hFc
Method: (§1) Antibodies, expressed as either mouse Fc (prefix H1M; H2M) or human Fc (prefix H4H), were captured on their respective anti-Fc sensor surfaces (Mab capture format). […] Kinetic association (kₐ) and dissociation (kd) rate constants were determined by processing and fitting the data to a 1:1 binding model using Scrubber 2.0 curve fitting software.

[2] = target: T1, Macaca fascicularis PDGFRb.mmh; assay: SPR, mAb captured, 37 C
Method: as §1

[3] = target: T3, hPDGFRb.mmh (human, UniProt P09619 33-531); assay: SPR, mAb captured, 37 C
T3 construct: Soluble monomeric construct; also called soluble human PDGFR-beta.mmh
Method: as §1
Target sequence in this assay (P09619 other isoform, or with tags, fused parts or gaps): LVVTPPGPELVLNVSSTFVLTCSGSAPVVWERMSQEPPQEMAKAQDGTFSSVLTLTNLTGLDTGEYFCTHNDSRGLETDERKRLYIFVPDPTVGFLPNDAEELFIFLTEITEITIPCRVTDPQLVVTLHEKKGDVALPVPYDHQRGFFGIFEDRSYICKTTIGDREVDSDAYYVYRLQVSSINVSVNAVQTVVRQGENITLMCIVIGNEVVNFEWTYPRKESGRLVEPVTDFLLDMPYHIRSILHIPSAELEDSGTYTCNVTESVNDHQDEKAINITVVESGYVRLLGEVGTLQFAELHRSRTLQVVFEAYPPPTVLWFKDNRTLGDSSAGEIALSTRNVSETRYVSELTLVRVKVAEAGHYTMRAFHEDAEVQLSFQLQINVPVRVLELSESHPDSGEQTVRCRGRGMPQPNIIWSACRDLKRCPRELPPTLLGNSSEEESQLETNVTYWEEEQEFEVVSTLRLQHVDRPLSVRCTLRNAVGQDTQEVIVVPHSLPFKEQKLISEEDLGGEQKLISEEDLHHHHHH

[4] = target: T3, hPDGFRb.mmh; assay: blocking ELISA, biot-hPDGFRb.mmh to coated PDGF-BB
Method: The equilibrated PDGFR-beta/antibody solutions were added to ligand-coated plates, allowed to incubate for 1 hr, and washed. Levels of bound biot-hPDGFR-beta.mmh were detected using HRP conjugated streptavidin. Data were analyzed using Prism software and IC₅₀ values were calculated as the amount of antibody required to achieve 50% reduction of hPDGFR-beta-mmh bound to ligand. Maximum blocking values were also calculated and reflect the ability of the antibody to block relative to baseline. The absorbance measured at the constant amount of 250 pM biot-hPDGFR-beta-mmh on the dose curve is defined as 0% blocking and the absorbance with no added PDGFR-beta is defined as 100%. The absorbance of the wells containing the highest antibody concentration determined the maximum blocking percent.
Target sequence in this assay (P09619 other isoform, or with tags, fused parts or gaps): as above

[5] = target: full length human PDGFR-beta on HEK293 cells (human, UniProt P09619 33-1106); assay: cell-based or functional assay
[6] = target: T2, human PDGFRb.hFc; assay: SPR, mAb captured, 25 C
Method: as §1

[7] = target: T1, Macaca fascicularis PDGFRb.mmh; assay: SPR, mAb captured, 25 C
Method: as §1

[8] = target: T3, hPDGFRb.mmh; assay: SPR, mAb captured, 25 C
Method: as §1

Chain of full length human PDGFR-beta on HEK293 cells (P09619 33-1106 limits assumed): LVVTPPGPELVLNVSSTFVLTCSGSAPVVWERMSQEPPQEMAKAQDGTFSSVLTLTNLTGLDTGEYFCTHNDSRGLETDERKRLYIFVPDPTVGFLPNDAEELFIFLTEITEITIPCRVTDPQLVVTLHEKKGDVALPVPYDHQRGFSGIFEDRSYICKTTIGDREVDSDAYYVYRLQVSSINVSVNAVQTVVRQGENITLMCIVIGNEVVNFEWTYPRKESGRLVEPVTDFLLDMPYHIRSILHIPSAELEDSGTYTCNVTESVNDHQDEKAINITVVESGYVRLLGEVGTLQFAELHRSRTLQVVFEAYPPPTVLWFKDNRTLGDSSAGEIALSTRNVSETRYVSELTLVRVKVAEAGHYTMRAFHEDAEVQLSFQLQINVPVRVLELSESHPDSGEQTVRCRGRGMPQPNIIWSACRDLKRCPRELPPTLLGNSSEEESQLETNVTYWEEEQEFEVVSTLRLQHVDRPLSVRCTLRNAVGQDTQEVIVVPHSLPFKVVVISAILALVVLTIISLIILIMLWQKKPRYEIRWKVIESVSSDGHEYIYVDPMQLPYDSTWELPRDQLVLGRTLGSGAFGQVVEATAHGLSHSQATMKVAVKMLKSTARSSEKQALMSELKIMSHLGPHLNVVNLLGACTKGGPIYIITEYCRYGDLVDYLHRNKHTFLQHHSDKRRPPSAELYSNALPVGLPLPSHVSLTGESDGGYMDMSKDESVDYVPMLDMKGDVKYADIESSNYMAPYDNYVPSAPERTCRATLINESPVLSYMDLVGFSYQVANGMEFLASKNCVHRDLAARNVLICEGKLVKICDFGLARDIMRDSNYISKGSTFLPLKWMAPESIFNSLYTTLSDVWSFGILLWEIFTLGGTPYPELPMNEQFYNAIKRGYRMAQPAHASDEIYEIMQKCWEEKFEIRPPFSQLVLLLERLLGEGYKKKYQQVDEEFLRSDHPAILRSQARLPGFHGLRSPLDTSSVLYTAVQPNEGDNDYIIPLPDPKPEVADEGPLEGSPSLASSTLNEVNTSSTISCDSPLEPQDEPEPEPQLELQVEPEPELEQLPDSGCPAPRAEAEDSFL

Binder	Kd [1]	koff [1]	kon [1]	t1/2 [1]	Kd [2]	koff [2]	kon [2]	t1/2 [2]	Kd [3]	koff [3]	kon [3]	t1/2 [3]	% Maximum Blocking [4]	IC50, blocking PDGF-BB (250 pM) activation, SRE-luciferase [5]	IC50, blocking PDGF-DD (400 pM) activation, SRE-luciferase [5]	Kd [6]	koff [6]	kon [6]	t1/2 [6]	Kd [7]	also measured
B1	0.606 nM	0.000567 s⁻¹	936000 M⁻¹ s⁻¹	20 min	4.05 nM	0.00299 s⁻¹	740000 M⁻¹ s⁻¹	4 min	3.37 nM	0.0028 s⁻¹	833000 M⁻¹ s⁻¹	4 min	89%	5e-10 M	3.3e-10 M	0.304 nM	0.000146 s⁻¹	480000 M⁻¹ s⁻¹	79 min	0.909 nM	IC50 [4]: 0.38 nM; koff [7]: 0.000714 s⁻¹; kon [7]: 786000 M⁻¹ s⁻¹; t1/2 [7]: 16 min; Kd [8]: 1.61 nM; koff [8]: 0.000688 s⁻¹; kon [8]: 428000 M⁻¹ s⁻¹; t1/2 [8]: 17 min
B2	2.08 nM	0.000741 s⁻¹	356000 M⁻¹ s⁻¹	16 min	9.26 nM	0.00345 s⁻¹	372000 M⁻¹ s⁻¹	3 min	8.49 nM	0.00335 s⁻¹	394000 M⁻¹ s⁻¹	3 min	86%	7.4e-10 M	5.2e-10 M	0.686 nM	0.000215 s⁻¹	314000 M⁻¹ s⁻¹	54 min	4.65 nM	IC50 [4]: 0.17 nM; koff [7]: 0.000882 s⁻¹; kon [7]: 190000 M⁻¹ s⁻¹; t1/2 [7]: 13 min; Kd [8]: 2.49 nM; koff [8]: 0.000744 s⁻¹; kon [8]: 299000 M⁻¹ s⁻¹; t1/2 [8]: 16 min
B3	0.76 nM	0.000319 s⁻¹	420000 M⁻¹ s⁻¹	36 min	2.86 nM	0.00164 s⁻¹	574000 M⁻¹ s⁻¹	7 min	1.42 nM	0.00147 s⁻¹	1.04e+06 M⁻¹ s⁻¹	8 min	30%	4.1e-09 M	4.4e-09 M	0.39 nM	0.000118 s⁻¹	300000 M⁻¹ s⁻¹	98 min	1.73 nM	koff [7]: 0.000489 s⁻¹; kon [7]: 283000 M⁻¹ s⁻¹; t1/2 [7]: 24 min; Kd [8]: 0.89 nM; koff [8]: 0.000455 s⁻¹; kon [8]: 509000 M⁻¹ s⁻¹; t1/2 [8]: 25 min
B4													5%								binding result [6]: no binding; binding result [7]: no binding; binding result [8]: no binding
B5	0.206 nM	7.66e-05 s⁻¹	374000 M⁻¹ s⁻¹	151 min	95.6 nM	0.0267 s⁻¹	280000 M⁻¹ s⁻¹	0.4 min	2.34 nM	0.00171 s⁻¹	733000 M⁻¹ s⁻¹	7 min	-13%	1.2e-09 M	1.1e-09 M	0.219 nM	6.22e-05 s⁻¹	280000 M⁻¹ s⁻¹	186 min	68.9 nM	koff [7]: 0.0094 s⁻¹; kon [7]: 136000 M⁻¹ s⁻¹; t1/2 [7]: 1.2 min; Kd [8]: 1.54 nM; koff [8]: 0.000596 s⁻¹; kon [8]: 386000 M⁻¹ s⁻¹; t1/2 [8]: 19 min
B6	3.1 nM	0.000793 s⁻¹	250000 M⁻¹ s⁻¹	15 min	31.6 nM	0.00512 s⁻¹	162000 M⁻¹ s⁻¹	2 min	13.8 nM	0.00624 s⁻¹	452000 M⁻¹ s⁻¹	2 min	84%	4.5e-10 M	5.8e-10 M	1.17 nM	0.00026 s⁻¹	222000 M⁻¹ s⁻¹	44 min	6.39 nM	IC50 [4]: 0.18 nM; koff [7]: 0.00117 s⁻¹; kon [7]: 182000 M⁻¹ s⁻¹; t1/2 [7]: 10 min; Kd [8]: 3.68 nM; koff [8]: 0.00104 s⁻¹; kon [8]: 281000 M⁻¹ s⁻¹; t1/2 [8]: 11 min
B7	3 nM	0.000824 s⁻¹	280000 M⁻¹ s⁻¹	14 min	14.4 nM	0.00416 s⁻¹	289000 M⁻¹ s⁻¹	3 min	11.3 nM	0.00354 s⁻¹	314000 M⁻¹ s⁻¹	3 min	86%	5.8e-10 M	5.1e-10 M	0.91 nM	0.000225 s⁻¹	247000 M⁻¹ s⁻¹	51 min	5.2 nM	IC50 [4]: 0.16 nM; koff [7]: 0.000932 s⁻¹; kon [7]: 180000 M⁻¹ s⁻¹; t1/2 [7]: 12 min; Kd [8]: 3.19 nM; koff [8]: 0.000784 s⁻¹; kon [8]: 246000 M⁻¹ s⁻¹; t1/2 [8]: 15 min
